Data from paper PMC7495481, “Sequence specificity analysis of the SETD2 protein lysine methyltransferase and discovery of a SETD2 super-substrate” (Communications Biology, 2020).
Ends that are not written are not given here.

Legend:
[1] = target: T1, SETD2 (Homo sapiens, UniProt Q9BYW2); conditions: H3K36 peptide, previously determined under the same conditions; ref [30]; cited from earlier work
T1 construct: SETD2 catalytic SET domain (amino acids 1347–1711, UniProt No: Q9BYW2); made in house; host or cells: E. coli
T1 sequence (Q9BYW2 1347-1711): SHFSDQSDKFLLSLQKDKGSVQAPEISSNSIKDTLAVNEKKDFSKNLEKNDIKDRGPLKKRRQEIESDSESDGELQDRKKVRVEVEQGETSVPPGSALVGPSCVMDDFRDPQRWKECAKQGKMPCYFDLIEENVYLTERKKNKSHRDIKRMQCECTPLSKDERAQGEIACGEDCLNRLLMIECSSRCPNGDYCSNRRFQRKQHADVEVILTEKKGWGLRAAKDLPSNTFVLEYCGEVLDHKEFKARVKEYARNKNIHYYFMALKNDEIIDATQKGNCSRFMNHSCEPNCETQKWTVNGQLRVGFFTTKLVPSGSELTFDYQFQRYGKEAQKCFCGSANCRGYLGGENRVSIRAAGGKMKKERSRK

[2] = target: T1, SETD2; assay: Protein methylation assay (non-histone proteins, GST fusions, nucleosomes, H3.1); type: biochemical; conditions: equal amounts; 6 µM SETD2, 0.76 µM AdoMet, 3 h, 25 °C; autoradiography
Source text: The 9 new putative non-histone substrates of SETD2 were cloned into a pGEX-6p2 bacterial expression vector for protein expression. Six of them could be expressed and purified through glutathione sepharose beads (Table 1). For comparison, the super-substrate sequence was cloned with a […] GST-tag (ssK36-GST) to mimic the natural setting of the H3K36 site in the N-terminal tail of histone 3. Similar amounts of the purified non-histone substrate proteins and the ssK36-GST protein were loaded on an SDS-gel and stained with Coomassie BB (Supplementary Fig. 6a). Afterward protein methylation reactions were conducted using radioactively labeled AdoMet and the radioactive signal of the methyl group transfer was detected by autoradiography (Supplementary Fig. 6b). […] Next, we aimed to confirm the FBN1 methylation at the predicated target lysine K666. For this, a K666R mutation was introduced and the wildtype and mutant FBN1 proteins were purified by affinity chromatography. […]
Protein methylation reactions were performed in 40 µl methylation buffer containing 0.76 µM radioactive labeled AdoMet (PerkinElmer), approximately 20 µg of substrate protein and 6 µM SETD2 enzyme (if not otherwise indicated) for 3 h at 25 °C. […] The radioactive methylation signal was detected by a hyperfilm^TM high performance autoradiography film (GE Healthcare) at −80 °C in the dark. […]

[3] = target: T1, SETD2; assay: Western Blot detection of GST fusion methylation by SETD2 with H3K36me3 antibody; type: biochemical; conditions: incubated with SETD2 and unlabeled AdoMet
Protocol: Supplementary Fig. 9: Control experiments related to Fig. 6c. a Validation of the detection of ssK36-GST methylation by the α-H3K36me3 antibody. The purified ssK36-GST and H3K36-GST substrates were incubated with SETD2 and unlabeled AdoMet. Afterwards, the proteins were separated by SDS-PAGE and blotted. Western Blot […]
of H3K36-GST methylation by SETD2 observed in Fig. 6a and 6b. Equal loading of the GST-tagged proteins is shown in the Coomassie BB stain of a parallel gel, equal loading of SETD2 is shown in the Ponceau S stain of the Western Blot membrane. b YFP-tagged ssK36 and H3K36 substrates were transfected into HEK293 cells together with DsRed-tagged SETD2 or DsRed empty vector (EV). The expression levels of DsRed-SETD2 and DsRed from EV were determined […]
Example of the FACS primary data for DsRed expression. d Average fraction of DsRed positive cells in three independent experiments normalized to DsRed-SETD2 + YFP-ssK36. EV, empty […]
(1 picture or pasted object on this page, not shown here)

[4] = target: T1, SETD2; assay: Peptide SPOT array methylation of reported SETD2 substrates; type: biochemical; conditions: SPOT array on cellulose membrane; 0.76 µM radioactive AdoMet, 3–6 µM SETD2, 60 min, pH 9; autoradiography
Protocol: Next, the SETD2 activity was tested on peptide SPOT arrays containing fifteen amino acid long peptides immobilized on a cellulose membrane. As reported SETD2 substrates, the H3K36 (29–43), α -tubulin (33–47) and STAT1 (518–532) peptides (with the target lysine centered in each case) were included, and peptides with the corresponding target lysine mutated to alanine were used as negative controls. The peptide array was incubated in methylation buffer supplemented with SETD2 and radioactively labeled AdoMet. […] Methylation of the previously reported non-histone substrates α -tubulin and STAT1 was not detectable at the peptide level and, therefore, they were excluded from further investigation.
Peptide arrays containing fifteen amino acid long peptides were synthesized using the SPOT synthesis method[48] with an Autospot peptide array synthesizer (Intavis AG, Köln, Germany). After synthesis, the obtained membranes were pre-incubated in methylation buffer (20 mM Tris/HCl pH 9, 0.01% Triton X-100, 10 mM DTT, 1.5 mM MgCl2) for 5 min on a shaker. Thereafter, the membranes were incubated in methylation buffer supplemented with 0.76 µM radioactively labeled AdoMet (PerkinElmer) and 3–6 µM SETD2 enzyme for 60 min on a shaker. After methylation, the membranes were washed 5 times for 5 min in wash buffer (100 mM NH4HCO3, 1% SDS) and incubated in amplify NAMP100V (GE Healthcare) for 5 min. This was followed by the exposure of the membranes to a hyperfilm^TM high performance autoradiography (GE Healthcare) film at −80 °C in the dark. The films were developed with an Optimax Typ TR machine after different exposue times. For quantification the signal intensities were measured with the Phoretix^TM software and analyzed with Microsoft Excel.
Supplementary Fig. 1: SETD2 protein and catalytic activity. a Purified His6-tagged SETD2 SET domain (1347-1711) was separated on an SDS-gel and […]
stained with Coomassie BB. […]
tubulin (33-47), STAT1 (518-532) and their corresponding target lysine to alanine mutant peptides were synthesized on a cellulose membrane. The membrane was incubated in methylation buffer supplemented with radioactively labeled AdoMet and SETD2. The signal of the transferred radioactive methyl groups was visualized by autoradiography.

[5] = target: T1, SETD2; conditions: ref [18],[19]; cited from earlier work
Source text: SETD2 is a PKMT initially in 2005 identified to methylate H3K36[8]. So far, lysine 36 in H3 was still the best substrate known for this enzyme at the peptide level. At the protein level, H3 methylation by SETD2 is weak, but it is strongly stimulated in the context of a nucleosome as shown here by us and previously by others. […] In thi ...

For “H3K36 peptide: H3K36 (27–43) peptide purchased from Intavis AG (KSAPATGGVKKPHRYRP; UniProt P68431 28-44, looked up, fragment)”, the Km [1] is given as 65 µM.

In the case of “H3K36-GST: H3K36 (29–43) sequence cloned with C-terminal GST-tag (APATGGVKKPHRYRP; also: C-terminal GST tag fusion; UniProt P68431 30-44, looked up, fragment)”, the “methylation of GST fusion proteins (in words)” value [2] is reported as “no signal was detected” and the “H3K36me3 antibody Western Blot signal” value [3] is reported as “very weak signal”.

B1: STAT1: known non-histone substrate of SETD2, methylated at K525 (protein, UniProt P42224 2-750, looked up)
Signal transducer and …: SQWYELQQLDSKFLEQVHQLYDDSFPMEIRQYLAQWLEKQDWEHAANDVSFATIRFHDLLSQLDDQYSRFSLENNFLLQHNIRKSKRNLQDNFQEDPIQMSMIIYSCLKEERKILENAQRFNQAQSGNIQSTVMLDKQKELDSKVRNVKDKVMCIEHEIKSLEDLQDEYDFKCKTLQNREHETNGVAKSDQKQEQLLLKKMYLMLDNKRKEVVHKIIELLNVTELTQNALINDELVEWKRRQQSACIGGPPNACLDQLQNWFTIVAESLQQVRQQLKKLEELEQKYTYEHDPITKNKQVLWDRTFSLFQQLIQSSFVVERQPCMPTHPQRPLVLKTGVQFTVKLRLLVKLQELNYNLKVKVLFDKDVNERNTVKGFRKFNILGTHTKVMNMEESTNGSLAAEFRHLQLKEQKNAGTRTNEGPLIVTEELHSLSFETQLCQPGLVIDLETTSLPVVVISNVSQLPSGWASILWYNMLVAEPRNLSFFLTPPCARWAQLSEVLSWQFSSVTKRGLNVDQLNMLGEKLLGPNASPDGLIPWTRFCKENINDKNFPFWLWIESILELIKKHLLPLWNDGCIMGFISKERERALLKDQQPGTFLLRFSESSREGAITFTWVERSQNGGEPDFHAVEPYTKKELSAVTFPDIIRNYKVMAAENIPENPLKYLYPNIDKDHAFGKYYSRPKEAPEPMELDGPKGTGYIKTELISVSEVHPSRLQTTDNLLPMSPEEFDEVSRIVGSVEFDSMMNTV
In the case of B1, the “peptide spot methylation signal” value [4] is given as “did not show a detectable peptide methylation signal” and the “reported methylation by SETD2 compared with H3K36” value [5] is given as “weaker than H3K36”.
